Chondroitin sulfate synthesis activity (35S sulfate label in chondroitinase ABC-digested GAG fractions of transfected LTC cells and culture medium) data for two substances are collected here from US20070203087A1.

The target of this assay is aggrecan (core protein carrying chondroitin sulfate chains) made by rat chondrosarcoma LTC cells (rat) (UniProt P07897).

“human chondroitin sulfate N-acetylgalactosaminyltransferase-1 (enzyme)”: the chondroitin sulfate synthesis activity (35S sulfate label in chondroitinase ABC-digested GAG fractions of transfected LTC cells and culture medium) stood at 2.2 fold. In the case of “human chondroitin sulfate glucuronyltransferase (enzyme)”, the chondroitin sulfate synthesis activity (35S sulfate label in chondroitinase ABC-digested GAG fractions of transfected LTC cells and culture medium) was 1.6 fold.
